B1: CD318 specific antibody (antibody, V domains shown)
VH: EVQLQQSGAELVRPGALVKLSCKASGFNIKDYYIHWVKQRPEQGLEWIGWIDPENGHTIYDPKFQGKASITADTSSNTAYLQLSSLTSEDTAVYYCARLTGTTYAMDYWGQGTSVTVSS
VL: DIVMTQSHKFMSTSVGDRVSITCKASQDVSTAVAWYQQKSGQSPKLLIYWASTRHTGVPDRFTGSGSGTDYTLTISSVQAEDLALYYCQQHYSTPYTFGGGTKLEIK
notes: also called CD318 VH
B2: TSPAN8 specific antibody (antibody, V domains shown)
VH: EVKLLESGGGLVQPGGSMRLSCAASGFTFTDFYMNWIRQPAGKAPEWLGFIRNKASGYTTEYNPSVKGRFTISRDNTQNMLYLQMNTLRAEDTATYYCARAHSYYGYDYFDYWGQGVMVTVSS
VL: DIQMTQSPASLSASLEEIVTITCQASQDIGNWLSWYQQKPGKSPQLLIYGATSLADGVPSRFSGSRSGTQYSLKISRLQVEDIRIYYCLQAYSAPWTFGGGTKLELK
notes: also called TSPAN8 VH

Legend:
CD318 = target: T1, CD318 (human, UniProt Q9H5V8 30-836); assay: antibody used for staining of human pancreatic cancer cells (flow cytometry, immunohistochemistry; Example 1); told in words only
T1 construct: whole, on cells
T1 sequence (looked up): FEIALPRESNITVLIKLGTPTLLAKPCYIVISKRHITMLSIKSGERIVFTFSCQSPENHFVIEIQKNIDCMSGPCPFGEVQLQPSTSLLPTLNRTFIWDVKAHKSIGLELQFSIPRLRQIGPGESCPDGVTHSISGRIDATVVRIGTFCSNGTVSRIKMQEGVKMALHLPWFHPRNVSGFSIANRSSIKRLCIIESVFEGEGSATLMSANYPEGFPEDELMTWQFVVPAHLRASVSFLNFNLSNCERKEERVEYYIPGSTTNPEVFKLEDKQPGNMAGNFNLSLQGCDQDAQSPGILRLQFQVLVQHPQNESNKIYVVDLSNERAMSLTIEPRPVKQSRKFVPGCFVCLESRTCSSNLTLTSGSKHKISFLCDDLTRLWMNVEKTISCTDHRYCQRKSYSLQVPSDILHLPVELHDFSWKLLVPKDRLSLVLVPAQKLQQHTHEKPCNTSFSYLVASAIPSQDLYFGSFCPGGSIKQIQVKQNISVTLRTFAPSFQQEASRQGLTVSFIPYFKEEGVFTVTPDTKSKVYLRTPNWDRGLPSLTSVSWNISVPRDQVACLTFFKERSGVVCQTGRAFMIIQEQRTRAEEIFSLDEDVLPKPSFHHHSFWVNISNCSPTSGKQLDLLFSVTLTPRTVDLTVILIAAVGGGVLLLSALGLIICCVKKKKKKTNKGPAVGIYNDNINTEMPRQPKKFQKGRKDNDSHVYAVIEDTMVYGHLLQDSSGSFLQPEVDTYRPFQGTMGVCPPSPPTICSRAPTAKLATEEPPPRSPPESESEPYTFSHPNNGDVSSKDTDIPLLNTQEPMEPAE

TSPAN8 = target: T2, TSPAN8 (human, UniProt P19075 1-237); assay: as above
T2 construct: whole, on cells
T2 sequence (looked up): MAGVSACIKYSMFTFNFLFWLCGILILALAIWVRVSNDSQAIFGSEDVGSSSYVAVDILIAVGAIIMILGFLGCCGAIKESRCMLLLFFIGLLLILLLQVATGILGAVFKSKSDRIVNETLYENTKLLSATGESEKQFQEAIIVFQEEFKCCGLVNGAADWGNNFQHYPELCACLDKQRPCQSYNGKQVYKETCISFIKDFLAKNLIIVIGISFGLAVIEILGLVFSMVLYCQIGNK

Binder	binding result (CD318)	binding result (TSPAN8)
B1	binds	–
B2	–	binds

From patent US20200282035A1 (MILTENYI BIOTEC B V, published 2020)
